Biological target: NcCAR reductase (R) domain, NcCAR^Δ1–649 (Neurospora crassa)
Assay: SAXS; R-domain in solution; best fit of the experimental data as a mixture of monomer and dimer

## NcCAR reductase (R) domain, NcCAR^Δ1–649 (domain or fragment)
  percent dimer in solution: 69%
  percent monomer in solution: 31%
  stoichiometry N: 2

From paper PMC10168641
